{"source": "patent US10647739B2", "about": "“Flavonoids O-A-glucosylated on the B cycle, method for the production thereof and uses” (Institut National de la Recherche Agronomique, priority 2014, dated 2020)", "molecules": {"B1": {"name": "ASNp WT: wild-type recombinant amylosucrase from Neisseria polysaccharea (protein, UniProt Q9ZEU2 1-636, looked up)", "Amylosucrase": "MLTPTQQVGLILQYLKTRILDIYTPEQRAGIEKSEDWRQFSRRMDTHFPKLMNELDSVYGNNEALLPMLEMLLAQAWQSYSQRNSSLKDIDIARENNPDWILSNKQVGGVCYVDLFAGDLKGLKDKIPYFQELGLTYLHLMPLFKCPEGKSDGGYAVSSYRDVNPALGTIGDLREVIAALHEAGISAVVDFIFNHTSNEHEWAQRCAAGDPLFDNFYYIFPDRRMPDQYDRTLREIFPDQHPGGFSQLEDGRWVWTTFNSFQWDLNYSNPWVFRAMAGEMLFLANLGVDILRMDAVAFIWKQMGTSCENLPQAHALIRAFNAVMRIAAPAVFFKSEAIVHPDQVVQYIGQDECQIGYNPLQMALLWNTLATREVNLLHQALTYRHNLPEHTAWVNYVRSHDDIGWTFADEDAAYLGISGYDHRQFLNRFFVNRFDGSFARGVPFQYNPSTGDCRVSGTAAALVGLAQDDPHAVDRIKLLYSIALSTGGLPLIYLGDEVGTLNDDDWSQDSNKSDDSRWAHRPRYNEALYAQRNDPSTAAGQIYQGLRHMIAVRQSNPRFDGGRLVTFNTNNKHIIGYIRNNALLAFGNFSEYPQTVTAHTLQAMPFKAHDLIGGKTVSLNQDLTLQPYQVMWLEIA"}, "B2": {"name": "DSR-S vardelΔ4N S512C: mutant of truncated DSR-S, SEQ ID NO: 10 (protein)", "chain": "TQQVSGKYVEKDGSWYYYFDDGKNAKGLSTIDNNIQYFYESGKQAKGQYVTIDNQTYYFDKGSGDELTGLQSIDGNIVAFNDEGQQIFNQYYQSENGTTYYFDDKGHAATGIKNIEGKNYYFDNLGQLKKGFSGVIDGQIMTFDQETGQEVSNTTSEIKEGLTTQNTDYSEHNAAHGTDAEDFENIDGYLTASSWYRPTGILRNGTDWEPSTDTDFRPILSVWWPDKNTQVNYLNYMADLGFISNADSFETGDSQSLLNEASNYVQKSIEMKISAQQSTEWLKDAMAAFIVAQPQWNETSEDMSNDHLQNGALTYVNSPLTPDANSNFRLLNRTPTNQTGEQAYNLDNSKGGFELLLANQEDNSNVVVEAEQLNWLYYLMNFGTITANDADANFDGIRVDAVDNVDADLLQIAADYFKLAYGVDQNDATANQHLSILEDWSHNDPLYVTDQGSNQLTMDDYVHTQLIWSLTKSSDIRGTMQRFVDYYMVDRSNDSTENEAIPNYSFVRAHDCEVQTVIAQIVSDLYPDVENSLAPTTEQLAAAFKVYNEDEKLADKKYTQYNMASAYAMLLTNKDTVPRVYYGDLYTDDGQYMATKSPYYDAINTLLKARVQYVAGGQSMSVDSNDVLTSVRYGKDAMTASDTGTSETRTEGIGVIVSNNAELQLEDGHTVTLHMGAAHKNQAYRALLSTTADGLAYYDTDENAPVAYTDANGDLIFTNESIYGVQNPQVSGYLAVWVPVGAQQDQDARTASDTTTNTSDKVFHSNAALDSQVIYEGFSNFQAFATDSSEYTNVVIAQNADQFKQWGVTSFQLAPQYRSSTDTSFLDSIIQNGYAFTDRYDLGYGTPTKYGTADQLRDAIKALHASGIQAIADWVPDQIYNLPEQELATVTRTNSFGDDDTDSDIDNALYVVQSRGGGQYQEMYGGAFLEELQALYPSLFKVNQISTGVPIDGSVKITEWAAKYFNGSNIQGKGAGYVLKDMGSNKYFKVVSNTEDGDYLPKQLTNDLSETGFTHDDKGIIYYTLSGYRAQNAFIQDDDNNYYYFDKTGHLVTGLQKINNHTYFFLPNGIELVKSFLQNEDGTIVYFDKKGHQVFDQYITDQNGNAYYFDDAGVMLKSGLATIDGHQQYFDQNGVQVKDKFVIGTDGYKYYFEPGSGNLAILRYVQNSKNQWFYFDGNGHAVTGFQTINGKKQYFYNDGHQSKGEFIDADGDTFYTSATDGRLVTGVQKINGITYAFDNTGNLITNQYYQLADGKYMLLDDSGRAKTGFVLQDGVLRYFDQNGEQVKDAIIVDPDTNLS", "modifications": "Leuconostoc mesenteroides"}, "B3": {"name": "V331A: ASNp amylosucrase single mutant (protein, UniProt Q9ZEU2 1-636, looked up, variant V331A)", "Amylosucrase": "B1 Amylosucrase with V331A"}, "B4": {"name": "V331L: ASNp amylosucrase single mutant (protein, UniProt Q9ZEU2 1-636, looked up, variant V331L)", "Amylosucrase": "B1 Amylosucrase with V331L"}, "B5": {"name": "V331M: ASNp amylosucrase single mutant (protein, UniProt Q9ZEU2 1-636, looked up, variant V331M)", "Amylosucrase": "B1 Amylosucrase with V331M"}, "B6": {"name": "V331N: ASNp amylosucrase single mutant (protein, UniProt Q9ZEU2 1-636, looked up, variant V331N)", "Amylosucrase": "B1 Amylosucrase with V331N"}}, "key": {"[1]": {"assay": "apigenin glucosylation acceptor reaction with recombinant glucansucrases (microplate screening)", "assay_type": "biochemical", "details": "sucrose 146 mM, apigenin 2.5 mM, 3% DMSO, 30° C., 24 h, HPLC-UV 340 nm peak areas", "procedure": "(§1) The enzymatic extracts obtained are used to carry out the flavonoid glucosylation enzymatic screening reactions. The enzymatic activity of each centrifuged cell lysate is evaluated in the microplate format, by final weight after 30 minutes incubation in the presence of a final concentration of 146 mM of sucrose, by assaying the reducing sugars with 3,5-dinitrosalicylic acid (DNS). Finally, after dilution in ultrapure water, the absorbance is read at 540 nm.\n(§2) The flavonoid acceptor reactions are then carried out in deep-well microplates, in a volume of 300 μl, at final concentrations of sucrose of 146 mM and of flavonoid of 2.5 mM (apigenin) or 5 mM (naringenin) (initially dissolved in 100% DMSO), and 140 μl of centrifuged cell lysate.\n(§3) The final DMSO concentration in the reaction medium is 3% (v/v).\n(§4) The incubation is carried out at 30° C. and at 700 rpm. After 24 hours, the enzymes are denatured at 95° C. for 15 minutes. These microplates are stored at −80° C. with a view to rapid evaluation of the flavonoid glucosylation by liquid-phase chromatography coupled to mass spectrometry (HPLC-MS or LC-MS).\n(§5) With a view to their analyses by HPLC-MS, the extensively homogenized reaction media are diluted to 1/30th in DMSO. The separation of the flavonoids and of their glucosylated forms is carried out in reverse phase with a ProntoSlL Eurobond® 53×3.0 mm 120-3-C18-AQ column (porosity of 120 Å, particle size of 3 μm, C18 grafting, Bischoff Chromatography, Germany).\n(§6) The flavonoid glucosylation efficiency was determined from the following formula: Glucosylation efficiency=(Σ(area of the peak of glucosylated flavonoid(s)))/(Σ(area of the peak of glucosylated flavonoid(s))+area of the peak of residual aglycone flavonoid)×100\n(§7) The flavonoid glucosylation efficiencies, expressed as a percentage, were calculated from the areas of the peaks of the various products analyzed, as described in example 1, by HPLC with a UV detector (340 nm) after 24 h of reaction."}, "[2]": {"assay": "naringenin glucosylation acceptor reaction with recombinant glucansucrases (microplate screening)", "assay_type": "biochemical", "details": "sucrose 146 mM, naringenin 5 mM, 3% DMSO, 30° C., 24 h, HPLC-UV 340 nm peak areas", "procedure": "as §1, §2, §3, §4, §5, §6\nas §7, with “The flavonoid glucosylation efficiency was determined from the formula set out in example 2. The” for “The”, “(λ340 nm),” for “(340 nm)”"}}, "note": "Positions count from the first letter of the chain named. In names and notes the source's numbering stands. Several values for one entry are separate records, joined by “and”; a condition that tells them apart may be missing. Equal entries are not always repeated."}
{"molecule": "α-1,2 BrS: wild-type glucansucrase α-1,2 BrS, SEQ ID NO: 11", "values": [{"measurement": "apigenin glucosylation efficiency", "setting": "[1]", "result": 2.5, "unit": "%"}, {"measurement": "naringenin glucosylation efficiency", "setting": "[2]", "result": 26.8, "unit": "%"}]}
{"molecule": "B1", "values": [{"measurement": "apigenin glucosylation efficiency", "setting": "[1]", "result": "0.5±0.5% and 0.5%"}, {"measurement": "apigenin glucosylation efficiency", "setting": "[1]; listed as A289A", "result": 0.6, "unit": "%"}, {"measurement": "apigenin glucosylation efficiency", "setting": "[1]; listed as D394D", "result": 0.1, "unit": "%"}, {"measurement": "apigenin glucosylation efficiency", "setting": "[1]; listed as F229F", "result": 0.8, "unit": "%"}, {"measurement": "apigenin glucosylation efficiency", "setting": "[1]; listed as F290F", "result": 0.8, "unit": "%"}, {"measurement": "apigenin glucosylation efficiency", "setting": "[1]; listed as I228I", "result": 0.8, "unit": "%"}, {"measurement": "apigenin glucosylation efficiency", "setting": "[1]; listed as I330I", "result": 0.8, "unit": "%"}, {"measurement": "apigenin glucosylation efficiency", "setting": "[1]; listed as R226R", "result": 0.3, "unit": "%"}, {"measurement": "apigenin glucosylation efficiency", "setting": "[1]; listed as V331V", "result": 0.2, "unit": "%"}, {"measurement": "naringenin glucosylation efficiency", "setting": "[2]", "result": "4.7±1.7% and 4.7%"}, {"measurement": "naringenin glucosylation efficiency", "setting": "[2]; listed as A289A", "result": 3.4, "unit": "%"}, {"measurement": "naringenin glucosylation efficiency", "setting": "[2]; listed as D394D", "result": 0.0, "unit": "%"}, {"measurement": "naringenin glucosylation efficiency", "setting": "[2]; listed as F229F", "result": 0.0, "unit": "%"}, {"measurement": "naringenin glucosylation efficiency", "setting": "[2]; listed as F290F", "result": 0.0, "unit": "%"}, {"measurement": "naringenin glucosylation efficiency", "setting": "[2]; listed as I228I", "result": 0.0, "unit": "%"}, {"measurement": "naringenin glucosylation efficiency", "setting": "[2]; listed as I330I", "result": 0.0, "unit": "%"}, {"measurement": "naringenin glucosylation efficiency", "setting": "[2]; listed as R226R", "result": 2.5, "unit": "%"}, {"measurement": "naringenin glucosylation efficiency", "setting": "[2]; listed as R446R", "result": 6.0, "unit": "%"}, {"measurement": "naringenin glucosylation efficiency", "setting": "[2]; listed as V331V", "result": 4.7, "unit": "%"}]}
{"molecule": "B2", "values": [{"measurement": "apigenin glucosylation efficiency", "setting": "[1]", "result": 13.9, "unit": "%"}, {"measurement": "apigenin glucosylation efficiency", "setting": "[1]; listed as S512C", "result": 13.9, "unit": "%"}, {"measurement": "naringenin glucosylation efficiency", "setting": "[2]", "result": 0.0, "unit": "%"}]}
{"molecule": "B3", "values": [{"measurement": "apigenin glucosylation efficiency", "setting": "[1]", "result": 0.5, "unit": "%"}, {"measurement": "naringenin glucosylation efficiency", "setting": "[2]", "result": 0.0, "unit": "%"}]}
{"molecule": "B4", "values": [{"measurement": "apigenin glucosylation efficiency", "setting": "[1]", "result": 0.3, "unit": "%"}, {"measurement": "naringenin glucosylation efficiency", "setting": "[2]", "result": 0.0, "unit": "%"}]}
{"molecule": "B5", "values": [{"measurement": "apigenin glucosylation efficiency", "setting": "[1]", "result": 0.1, "unit": "%"}, {"measurement": "naringenin glucosylation efficiency", "setting": "[2]", "result": 0.0, "unit": "%"}]}
{"molecule": "B6", "values": [{"measurement": "apigenin glucosylation efficiency", "setting": "[1]", "result": 1.0, "unit": "%"}, {"measurement": "naringenin glucosylation efficiency", "setting": "[2]", "result": 0.0, "unit": "%"}]}
